This note sets out measurements from PMC6125598.

The test has as its target STIM1-CFP (stromal interacting molecule 1) (UniProt Q13586). Nature of the test: FRET or BRET; FRET between YFP-IP3R and STIM1-CFP in transfected cells, measured in TIRFM mode (less than 100 nm from the coverslip), after bradykinin stimulation (cells transfected with the human bradykinin type 2 receptor).
Chain of UniProt Q13586 (Q13586 23-685): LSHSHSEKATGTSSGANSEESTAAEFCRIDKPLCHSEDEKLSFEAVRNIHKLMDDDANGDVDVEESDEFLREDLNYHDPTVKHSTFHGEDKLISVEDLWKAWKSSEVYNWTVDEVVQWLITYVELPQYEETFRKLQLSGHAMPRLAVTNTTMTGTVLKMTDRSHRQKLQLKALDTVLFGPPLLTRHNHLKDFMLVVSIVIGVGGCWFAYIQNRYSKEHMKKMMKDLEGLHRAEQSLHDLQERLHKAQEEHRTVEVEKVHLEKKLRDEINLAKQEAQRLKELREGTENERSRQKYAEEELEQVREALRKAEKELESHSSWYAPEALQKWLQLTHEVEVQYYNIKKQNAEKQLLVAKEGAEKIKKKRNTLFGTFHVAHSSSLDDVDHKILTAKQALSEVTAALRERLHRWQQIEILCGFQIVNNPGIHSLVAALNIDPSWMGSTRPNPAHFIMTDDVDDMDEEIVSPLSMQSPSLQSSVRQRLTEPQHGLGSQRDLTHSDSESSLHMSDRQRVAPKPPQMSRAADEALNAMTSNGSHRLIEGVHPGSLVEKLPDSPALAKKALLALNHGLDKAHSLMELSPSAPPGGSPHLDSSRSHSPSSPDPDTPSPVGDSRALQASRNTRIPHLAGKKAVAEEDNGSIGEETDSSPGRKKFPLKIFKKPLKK

The substance “YFP-IP3R (inositol trisphosphate receptor type 1) (from UniProt Q14643-2 1-2743)” gave an FRET efficiency of 24%.
